Reference: US20130316374A1, “BREAST CANCER DIAGNOSTICS” (IMBA - INSTITUT FUR MOLEKULARE BIOTECHNOLOGIE GMBH, priority 2010, published 2013)

B1: RANKL: Receptor Activator of NF-κB Ligand; recombinant murine RANKL used for stimulation (protein, UniProt O35235 139-316, looked up)
Tumor necrosis factor ligand …: FSGAPAMMEGSWLDVAQRGKPEAQPFAHLTINAASIPSGSHKVTLSSWYHDRGWAKISNMTLSNGKLRVNQDGFYYLYANICFRHHETSGSVPTDYLQLMVYVVKTSIKIPSSHNLMKGGSTKNWSGNSEFHFYSINVGGFFKLRAGEEISIQVSNPSLLDPDQDATYFGAFKVQDID

Tests used:
[1] = system: mammary epithelial cells; assay: γ-irradiation induced mammary epithelial cell apoptosis in vivo (active Caspase 3); design: species or system mouse; conditions: 5 Gray
Procedure: a, Western blotting for phosphorylated (P) IKKα, total IKKα, phosphorylated (P) p65 NFκB, total p65 NFκB, phosphorylated (P) IκBα, and total IκBα in isolated primary mouse mammary gland epithelial cells (MECs) in response to RANKL stimulation (1 μg/ml). […] Expression was determined by qRT-PCR. […] Apoptosis was detected by immunostaining for active Caspase 3. f, Apoptotic nuclei of epithelial cells (arrows) are shown for representative mammary gland sections. Magnifications ×40. g, Quantification of mammary epithelial apoptosis. A minimum of 5000 nuclei was counted for each mouse. […]
a,b, Reduced induction of mammary epithelial cell apoptosis in response to γ-irradiation in IKKαhu Δmam females. […] 24 hours after irradiation, apoptosis was detected by immunostaining for active Caspase 3. a, Apoptotic nuclei of epithelial cells (arrows) are shown for representative mammary gland sections. Magnifications ×40. b, Quantification of mammary epithelial apoptosis. A minimum of 5000 nuclei was counted for each mouse. […]
For histological analysis, 5 μm sections were cut and stained with hematoxylin and eosin (H&E). […] Histomorphometric indices (proliferation and apoptosis) were calculated as the number of positive epithelial cells divided by the total number of epithelial cells, with no fewer than 1000 nuclei for Ki67 stainings and no fewer than 5000 cells for active Caspase 3 staining counted per section. […]

[2] = system: SKBR3 human breast cancer cells; assay: DNA damage responses (cell cycle arrest, apoptosis) in SKBR3 cells; type: cell-based; conditions: RANKL 1 μg/ml
Procedure: (§1) a, Western Blot analysis for γH2AX, phosphorylated (P) Chk1, total Chk1, p53 and β-actin in isolated primary mouse mammary gland epithelial cells in response to γ-irradiation (2 Gray) in the presence (1 μg/ml) or absence of RANKL stimulation. b,c, FACS analysis of propidium iodide (PI) stained b, mammary epithelial cells and c, SKBR3 human breast cancer cells after γ-irradiation (2 Gray) in the absence or presence (1 μg/ml) of RANKL. Data are representative of at least 3 experiments. Apoptotic cells with a DNA content <2n appear in the sub-G1 region. Percent of cells in sub-G1 (M1), G1-phase (M2), S/G2/M-phase (M3) as well as polyploid cells with a DNA content >4n are given for the indicated time points.
(§2) a,b, FACS analysis of a, mammary epithelial cells and b, SKBR3 human breast cancer cells incubated with the genotoxic agent doxorubicin (Dox, 1 μM) in the presence (1 μg/ml) or absence of RANKL. Data are representative of at least 3 experiments. Percent of cells in sub-G1 (M1), G1-phase (M2), S/G2/M-phase (M3) as well as polyploid cells with a DNA content >4n are given for 24 and 36 hours after doxorubicin treatment. c, mRNA expression of pro-apoptotic genes Bim, Puma, and Noxa 6 hours after γ-irradiation (2 Gray) in the presence (1 μg/ml) or absence of RANKL stimulation. Data are shown as fold change compared to control (+/−sem). n=3). *P<0.05; **P<0.005 (Student's t-test).
(§3) For measurement of cell cycle arrest and apoptosis primary mouse mammary epithelial cells and SKBR3 human breast cancer cells were seeded at a cell-density of 100000 cells/well in a 6-well plate and allowed to grow for 24 hours. Cells where then treated with doxorubicin (1 μM) or γ-irradiation (2 Gray) in the absence or presence of recombinant RANKL (1 μg/ml). Cell cycle arrest and numbers of dead cells were determined using propidium iodine staining. To determine in vivo mammary gland epithelial cell death, control and RANK^Δmam littermate females were γ-irradiated with a total dose of 5 Gray (Gy). Six hours later, mammary glands were isolated and immunostained for active Caspase 3 (Cell Signaling) indicative of apoptosis.

[3] = system: primary mouse mammary epithelial cells; assay: DNA damage responses (cell cycle arrest, apoptosis) in primary mouse mammary epithelial cells; type: cell-based; conditions: RANKL 1 μg/ml
Procedure: as §1, §2, §3

| Molecule | γ-irradiation-induced apoptosis of mammary epithelial cells ([1]; control females, MPA pellet) | protective effects of MPA on γ-irradiation-induced cell death ([1]; loss of RANK expression on mammary epithelial cells (RANK^Δmam)) | cell death after DNA damage ([2]; doxorubicin (1 μM)) | early cell cycle arrest after DNA damage ([2]; doxorubicin (1 μM)) | cell death after DNA damage ([2]; γ-irradiation (2 Gray)) | early cell cycle arrest after DNA damage ([2]; γ-irradiation (2 Gray)) | γ-irradiation-induced upregulation of Bim, Puma, and Noxa mRNA ([3]; 6 hours after γ-irradiation (2 Gray)) | cell death after DNA damage ([3]; doxorubicin (1 μM)) | early cell cycle arrest after DNA damage ([3]; doxorubicin (1 μM)) | cell death after DNA damage ([3]; γ-irradiation (2 Gray)) | early cell cycle arrest after DNA damage ([3]; γ-irradiation (2 Gray)) | induction of γH2AX and p53 or activation of Chk1 ([3]; γ-irradiation (2 Gray)) |
| --- | --- | --- | --- | --- | --- | --- | --- | --- | --- | --- | --- | --- |
| CC(=O)O[C@]1(C(C)=O)CC[C@H]2[C@@H]3C[C@H](C)C4=CC(=O)CC[C@]4(C)[C@H]3CC[C@@]21C [MPA, medroxyprogesterone acetate] | protected from γ-irradiation-induced apoptosis | abrogated | – | – | – | – | – | – | – | – | – | – |
| B1 | – | – | marked protection from cell death | did not alter | marked protection from cell death | did not alter | did not occur | marked protection from cell death | did not alter | marked protection from cell death | did not alter | did not alter |
